Substitutions are numbered along the chain they refer to. In names and notes the source's numbering stands.
B1: human GrpEL1 wild type, without its mitochondrial targeting sequence (natural protein, UniProt Q9HAV7 28-217, looked up)
chain: CTATKQKNSGQNLEEDMGQSEQKADPPATEKTLLEEKVKLEEQLKETVEKYKRALADTENLRQRSQKLVEEAKLYGIQAFCKDLLEVADVLEKATQCVPKEEIKDDNPHLKNLYEGLVMTEVQIQKVFTKHGLLKLNPVGAKFDPYEHEALFHTPVEGKEPGTVALVSKVGYKLHGRTLRPALVGVVKEA
notes: GrpEL1, human mitochondrial nucleotide exchange factor; printed mass 25.5 kDa a protomer; Homodimer; no tag removal is described; also called GrpEL1WT; HsGrpEL1; source: E. coli LOBSTR, purified (Ni Sepharose, Strep-Tactin, Superdex 200)
B2: human GrpEL1 Y173A, without its mitochondrial targeting sequence (natural protein, UniProt Q9HAV7 28-217, looked up)
chain: B1 chain with Y146A
notes: GrpEL1, human; Two protomers (GrpEL1-A and GrpEL1-B) were modelled in the Y173A structures; also called HsGrpEL1_(Y173A); source: E. coli LOBSTR, purified as GrpEL1WT (Ni Sepharose, Strep-Tactin, Superdex 200)

Experiments:
[1] = molecular target: T1, human mortalin R126W (mitochondrial Hsp70, HSPA9), without its mitochondrial targeting sequence (human, UniProt P38646 47-679, R126W); assay: SEC-MALS; the mortalin_(R126W)-GrpEL1 complex; 152.5 kDa species; conditions: both partners purified
T1 construct: mortalin (mitochondrial Hsp70, HSPA9), human; printed mass 70.2 kDa; R126W is associated with EVEN-PLUS syndrome; residues 46-639 were modelled in the cryo-EM map; No tag removal is described; also called Hsmortalin_(R126W); mtHsp70; source: E. coli LOBSTR, co-expressed with HsHep1, purified (HisTrap, HiTrap Q, Superdex 200)

[2] = molecular target: the molecule itself; assay: cryo-EM structure; high molecular weight SEC peak concentrated and vitrified on UltraAuFoil grids; Titan Krios G4, 300 keV; nucleotide-free complexes
[3] = molecular target: T1, human mortalin R126W (mitochondrial …); assay: SEC; purified mortalin (20 uM), GrpEL1 (40 uM) and Pam16/Pam18 chimera (12 uM) incubated 1 h at room temperature, then Superdex 200 Increase 10/300 GL in 20 mM Tris pH 8, 150 mM KCl, 0.5 mM TCEP; fractions seen by SDS-PAGE; conditions: both partners purified

T1 sequence (P38646 47-679 R126W): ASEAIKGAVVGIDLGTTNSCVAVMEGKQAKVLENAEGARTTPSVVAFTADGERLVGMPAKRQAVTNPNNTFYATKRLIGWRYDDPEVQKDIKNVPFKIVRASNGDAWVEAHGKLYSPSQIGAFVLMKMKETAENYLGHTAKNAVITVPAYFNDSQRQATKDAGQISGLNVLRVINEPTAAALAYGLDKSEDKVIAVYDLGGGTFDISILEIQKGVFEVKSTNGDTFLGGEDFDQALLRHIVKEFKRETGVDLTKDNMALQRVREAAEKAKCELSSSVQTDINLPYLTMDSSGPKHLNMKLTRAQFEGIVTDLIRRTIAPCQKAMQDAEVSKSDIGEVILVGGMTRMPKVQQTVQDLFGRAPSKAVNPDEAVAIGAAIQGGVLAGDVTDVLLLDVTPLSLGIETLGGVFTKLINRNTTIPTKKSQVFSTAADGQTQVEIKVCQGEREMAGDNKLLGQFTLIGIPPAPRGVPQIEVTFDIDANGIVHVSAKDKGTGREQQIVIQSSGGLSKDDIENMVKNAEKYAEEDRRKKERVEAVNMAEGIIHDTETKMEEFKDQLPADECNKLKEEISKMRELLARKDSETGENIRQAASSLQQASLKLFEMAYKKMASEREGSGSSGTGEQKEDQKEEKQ

Binder | stoichiometry N [1] [GrpEL1 per mortalin] | stoichiometry N [2] | binding result [3] | binding result [2]
B1 | 2 | 2 | – | –
B2 | – | – | binds | binds

Reference: publication PMC11685456, “Structural insights into GrpEL1-mediated nucleotide and substrate release of human mitochondrial Hsp70” (Nature Communications, 2024)
